Results taken from publication PMC4977500.

Target: RAIDD DD (UniProt P78560)
Test: native gel or EMSA; native-PAGE on a PhastSystem, 8-25% acrylamide gradient gels, Coomassie staining; complexes in 20 mM Tris pH 8.0, 50 mM NaCl; pre-incubated with or without peptide for 1 hour at room temperature; complex band without peptide taken as 100%

Sequence of RAIDD DD (P78560 94-199): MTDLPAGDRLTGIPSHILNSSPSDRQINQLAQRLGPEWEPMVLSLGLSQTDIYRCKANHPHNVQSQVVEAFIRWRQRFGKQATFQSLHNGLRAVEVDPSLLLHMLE

Substance: TAT-Y814A (previously generated TAT-fused PIDD peptide with the mutation Y814A)
- percent of RAIDD DD:PIDD DD complex formation blocked at 30 μM peptide: 50%
